For experiment [1], the target named is T1, S. cerevisiae Msh2–Msh6 (WT) (S. cerevisiae, UniProt P25847 1-964; Q03834 1-1242).
T1 construct: Msh2, S. cerevisiae, wild type; Msh6, S. cerevisiae, wild type; Heterodimer; also called WT Msh2–Msh6
The experiment can be described thus: SPR; Biacore T100; 236-bp GT mispair DNA held by biotin-streptavidin, other end blocked by lacO-LacI; 20 nM Msh2–Msh6, 250 μM ATP, 30 nM LacI for 100 s, then the same plus 40 nM Mlh1–Pms1 for 300 s; recruitment read as the increase in RU over steady-state Msh2–Msh6; 25 mM Tris pH 8, 4 mM MgCl2, 110 mM NaCl, 0.01% Igepal, 2 mM DTT, 2% glycerol; 10 °C, 20 μl/min. As to conditions: both partners purified.

Experiment [2] concerns the target T2, Msh2–Msh6(K988A) (S. cerevisiae, UniProt P25847 1-964; Q03834 1-1242, K988A).
T2 construct: Msh2, S. cerevisiae, wild type; Msh6, S. cerevisiae, Walker A lysine mutant; also called Walker A Lys mutant Msh2–Msh6 complex
The description is as above. As to conditions: both partners purified.

The target in experiment [3] is T3, Msh2–Msh6(K988R) (S. cerevisiae, UniProt P25847 1-964; Q03834 1-1242, K988R).
T3 construct: Msh2, S. cerevisiae, wild type; Msh6, S. cerevisiae, Walker A lysine mutant; also called Walker A Lys mutant Msh2–Msh6 complex
T3 sequence (P25847 whole entry, chain 1 of 2): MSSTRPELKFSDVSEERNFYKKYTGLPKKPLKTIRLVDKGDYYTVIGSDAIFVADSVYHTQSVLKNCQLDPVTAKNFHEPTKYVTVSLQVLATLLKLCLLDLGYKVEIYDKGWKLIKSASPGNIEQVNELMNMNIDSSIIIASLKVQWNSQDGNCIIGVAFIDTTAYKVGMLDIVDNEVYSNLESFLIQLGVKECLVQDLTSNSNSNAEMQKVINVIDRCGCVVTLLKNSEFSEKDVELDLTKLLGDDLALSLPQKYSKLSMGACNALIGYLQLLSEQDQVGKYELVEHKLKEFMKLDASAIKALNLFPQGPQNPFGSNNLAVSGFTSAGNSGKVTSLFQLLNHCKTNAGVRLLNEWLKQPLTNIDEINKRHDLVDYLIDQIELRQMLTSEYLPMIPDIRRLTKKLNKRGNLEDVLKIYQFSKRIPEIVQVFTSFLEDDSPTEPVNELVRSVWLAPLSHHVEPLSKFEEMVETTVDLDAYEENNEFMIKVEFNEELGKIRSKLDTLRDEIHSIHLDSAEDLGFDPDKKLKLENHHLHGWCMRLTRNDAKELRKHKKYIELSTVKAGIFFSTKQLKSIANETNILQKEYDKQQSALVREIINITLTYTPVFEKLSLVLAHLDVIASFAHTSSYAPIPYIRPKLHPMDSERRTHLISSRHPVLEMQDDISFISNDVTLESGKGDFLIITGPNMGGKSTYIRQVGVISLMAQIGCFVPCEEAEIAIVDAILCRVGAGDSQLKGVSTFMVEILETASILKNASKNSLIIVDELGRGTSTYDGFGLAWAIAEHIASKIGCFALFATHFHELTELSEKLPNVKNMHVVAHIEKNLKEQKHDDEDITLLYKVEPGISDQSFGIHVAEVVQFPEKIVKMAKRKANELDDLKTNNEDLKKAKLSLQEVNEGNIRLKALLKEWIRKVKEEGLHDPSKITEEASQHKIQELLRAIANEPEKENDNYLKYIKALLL
T3 sequence (Q03834 whole entry K988R, chain 2 of 2): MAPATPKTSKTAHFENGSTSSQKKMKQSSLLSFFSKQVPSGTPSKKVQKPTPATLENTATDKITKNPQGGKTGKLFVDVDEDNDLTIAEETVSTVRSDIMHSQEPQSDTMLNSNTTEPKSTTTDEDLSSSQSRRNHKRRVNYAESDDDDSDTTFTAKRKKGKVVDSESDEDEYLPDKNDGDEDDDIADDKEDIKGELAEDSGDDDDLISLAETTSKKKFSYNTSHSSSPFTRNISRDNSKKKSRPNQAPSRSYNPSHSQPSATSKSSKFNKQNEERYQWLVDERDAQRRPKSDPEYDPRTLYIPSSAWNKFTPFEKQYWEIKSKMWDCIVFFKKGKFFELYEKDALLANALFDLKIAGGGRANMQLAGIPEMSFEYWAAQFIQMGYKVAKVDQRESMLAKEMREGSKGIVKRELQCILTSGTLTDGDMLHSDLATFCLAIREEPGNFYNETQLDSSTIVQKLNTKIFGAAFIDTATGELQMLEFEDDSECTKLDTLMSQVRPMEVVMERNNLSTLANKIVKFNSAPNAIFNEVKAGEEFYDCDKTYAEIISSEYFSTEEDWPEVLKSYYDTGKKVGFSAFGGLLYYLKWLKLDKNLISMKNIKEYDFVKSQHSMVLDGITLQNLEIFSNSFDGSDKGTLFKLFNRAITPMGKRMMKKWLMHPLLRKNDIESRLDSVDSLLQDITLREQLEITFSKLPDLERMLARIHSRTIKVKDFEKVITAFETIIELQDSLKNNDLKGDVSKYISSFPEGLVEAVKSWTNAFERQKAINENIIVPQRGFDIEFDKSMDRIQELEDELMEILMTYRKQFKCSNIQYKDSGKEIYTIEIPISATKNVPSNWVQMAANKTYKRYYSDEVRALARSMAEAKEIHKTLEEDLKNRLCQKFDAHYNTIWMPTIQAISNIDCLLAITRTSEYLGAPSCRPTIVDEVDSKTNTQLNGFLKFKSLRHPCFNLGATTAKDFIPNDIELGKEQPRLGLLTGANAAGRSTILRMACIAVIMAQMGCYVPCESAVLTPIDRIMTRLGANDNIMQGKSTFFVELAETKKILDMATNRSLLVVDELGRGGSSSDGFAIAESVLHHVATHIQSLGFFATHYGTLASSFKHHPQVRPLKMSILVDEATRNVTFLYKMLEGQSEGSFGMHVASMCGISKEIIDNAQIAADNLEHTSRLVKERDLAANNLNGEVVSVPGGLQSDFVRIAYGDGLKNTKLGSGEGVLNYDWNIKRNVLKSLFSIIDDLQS
The description is as above. The conditions noted are these: both partners purified.

Experiment [4] deals with T4, Msh2–Msh6(K988M) (S. cerevisiae, UniProt P25847 1-964; Q03834 1-1242, K988M).
T4 construct: Msh2, S. cerevisiae, wild type; Msh6, S. cerevisiae, Walker A lysine mutant; also called Walker A Lys mutant Msh2–Msh6 complex; source: purified
T4 sequence (P25847 whole entry, chain 1 of 2): as the sequence (P25847 whole entry, chain 1 of 2) above
T4 sequence (Q03834 whole entry K988M, chain 2 of 2): as the sequence (Q03834 whole entry K988R, chain 2 of 2) above, with R988M counted along it
Described as above. As to conditions: both partners purified.

The target in experiment [5] is Msh2(K694M)–Msh6 (S. cerevisiae, UniProt P25847 1-964; Q03834 1-1242, K694M). The experiment can be described thus: cell-based or functional assay.
Msh2(K694M)–Msh6, sequence (P25847 whole entry K694M, chain 1 of 2): as the sequence (P25847 whole entry, chain 1 of 2) above, with K694M counted along it
Msh2(K694M)–Msh6, sequence (Q03834 whole entry, chain 2 of 2): as the sequence (Q03834 whole entry K988R, chain 2 of 2) above, with R988K counted along it
For experiment [6], the target named is Msh2(K694A)–Msh6 (S. cerevisiae, UniProt P25847 1-964; Q03834 1-1242, K694A). The experiment can be described thus: cell-based or functional assay.
Msh2(K694A)–Msh6, sequence (P25847 whole entry K694A, chain 1 of 2): as the sequence (P25847 whole entry, chain 1 of 2) above, with K694A counted along it
Msh2(K694A)–Msh6, sequence (Q03834 whole entry, chain 2 of 2): as the sequence (Q03834 whole entry K988R, chain 2 of 2) above, with R988K counted along it
Experiment [7] addresses Msh2(K694R)–Msh6 (S. cerevisiae, UniProt P25847 1-964; Q03834 1-1242, K694R). The experiment in a line: cell-based or functional assay.

Here are results for one molecule from PMC6254361, “The properties of Msh2–Msh6 ATP binding mutants suggest a signal amplification mechanism in DNA mismatch repair” (The Journal of Biological Chemistry, 2018).

Msh2(K694R)–Msh6, sequence (P25847 whole entry K694R, chain 1 of 2): as the sequence (P25847 whole entry, chain 1 of 2) above, with K694R counted along it
Msh2(K694R)–Msh6, sequence (Q03834 whole entry, chain 2 of 2): as the sequence (Q03834 whole entry K988R, chain 2 of 2) above, with R988K counted along it
T1 sequence (P25847 whole entry, chain 1 of 2): as the sequence (P25847 whole entry, chain 1 of 2) above
T1 sequence (Q03834 whole entry, chain 2 of 2): as the sequence (Q03834 whole entry K988R, chain 2 of 2) above, with R988K counted along it
T2 sequence (P25847 whole entry, chain 1 of 2): as the sequence (P25847 whole entry, chain 1 of 2) above
T2 sequence (Q03834 whole entry K988A, chain 2 of 2): as the sequence (Q03834 whole entry K988R, chain 2 of 2) above, with R988A counted along it

B1: S. cerevisiae Mlh1–Pms1 (complex)
chain 1: MSLRIKALDASVVNKIAAGEIIISPVNALKEMMENSIDANATMIDILVKEGGIKVLQITDNGSGINKADLPILCERFTTSKLQKFEDLSQIQTYGFRGEALASISHVARVTVTTKVKEDRCAWRVSYAEGKMLESPKPVAGKDGTTILVEDLFFNIPSRLRALRSHNDEYSKILDVVGRYAIHSKDIGFSCKKFGDSNYSLSVKPSYTVQDRIRTVFNKSVASNLITFHISKVEDLNLESVDGKVCNLNFISKKSISPIFFINNRLVTCDLLRRALNSVYSNYLPKGNRPFIYLGIVIDPAAVDVNVHPTKREVRFLSQDEIIEKIANQLHAELSAIDTSRTFKASSISTNKPESLIPFNDTIESDRNRKSLRQAQVVENSYTTANSQLRKAKRQENKLVRIDASQAKITSFLSSSQQFNFEGSSTKRQLSEPKVTNVSHSQEAEKLTLNESEQPRDANTINDNDLKDQPKKKQKLGDYKVPSIADDEKNALPISKDGYIRVPKERVNVNLTSIKKLREKVDDSIHRELTDIFANLNYVGVVDEERRLAAIQHDLKLFLIDYGSVCYELFYQIGLTDFANFGKINLQSTNVSDDIVLYNLLSEFDELNDDASKEKIISKIWDMSSMLNEYYSIELVNDGLDNDLKSVKLKSLPLLLKGYIPSLVKLPFFIYRLGKEVDWEDEQECLDGILREIALLYIPDMVPKVDTSDASLSEDEKAQFINRKEHISSLLEHVLFPCIKRRFLAPRHILKDVVEIANLPDLYKVFERC
chain 2: MTQIHQINDIDVHRITSGQVITDLTTAVKELVDNSIDANANQIEIIFKDYGLESIECSDNGDGIDPSNYEFLALKHYTSKIAKFQDVAKVQTLGFRGEALSSLCGIAKLSVITTTSPPKADKLEYDMVGHITSKTTTSRNKGTTVLVSQLFHNLPVRQKEFSKTFKRQFTKCLTVIQGYAIINAAIKFSVWNITPKGKKNLILSTMRNSSMRKNISSVFGAGGMRGLEEVDLVLDLNPFKNRMLGKYTDDPDFLDLDYKIRVKGYISQNSFGCGRNSKDRQFIYVNKRPVEYSTLLKCCNEVYKTFNNVQFPAVFLNLELPMSLIDVNVTPDKRVILLHNERAVIDIFKTTLSDYYNRQELALPKRMCSQSEQQAQKRLKTEVFDDRSTTHESDNENYHTARSESNQSNHAHFNSTTGVIDKSNGTELTSVMDGNYTNVTDVIGSECEVSVDSSVVLDEGNSSTPTKKLPSIKTDSQNLSDLNLNNFSNPEFQNITSPDKARSLEKVVEEPVYFDIDGEKFQEKAVLSQADGLVFVDNECHEHTNDCCHQERRGSTDTEQDDEADSIYAEIEPVEINVRTPLKNSRKSISKDNYRSLSDGLTHRKFEDEILEYNLSTKNFKEISKNGKQMSSIISKRKSEAQENIIKNKDELEDFEQGEKYLTLTVSKNDFKKMEVVGQFNLGFIIVTRKVDNKYDLFIVDQHASDEKYNFETLQAVTVFKSQKLIIPQPVELSVIDELVVLDNLPVFEKNGFKLKIDEEEEFGSRVKLLSLPTSKQTLFDLGDFNELIHLIKEDGGLRRDNIRCSKIRSMFAMRACRSSIMIGKPLNKKTMTRVVHNLSELDKPWNCPHGRPTMRHLMELRDWSSFSKDYEI
notes: Mlh1, S. cerevisiae; Pms1, S. cerevisiae; also called MMR endonuclease Mlh1–Pms1
As a reminder, the stoichiometry N is a count of units in the complex or per binding partner. Take B1: the “stoichiometry N” value in experiment [1] stood at 1.07 Mlh1–Pms1 per Msh2–Msh6. The binding result in experiment [2], in experiment [3] and in experiment [4] was “binds” each time. In addition, the “Mlh1–Pms1 endonuclease nicking of a 3′ nicked mispaired DNA promoted by the Msh2–Msh6 variant (with PCNA, RFC-Δ1N), 0.1 and 2.5 mM ATP, relative to WT Msh2–Msh6” value in experiment [5], in experiment [6] and in experiment [7] was ~50 % of the nicking of WT Msh2–Msh6 throughout.
